± gives the uncertainty stated by the source.
B1: Zinc finger homeobox protein 4, residues 2183 to 2238; numbered along this chain, Q86UP3 (parent)
chain: SSRTRFTDYQLRVLQDFFDTNAYPKDDEIEQLSTVLNLPTRVIVVWFQNARQKARK

Variants of: B1
Experiment: abundance fitness (aPCA) (normalised: wild type 0, dead -1); higher = more abundant; growth selection in yeast, the domain comes from the species named
Conditions: Homo sapiens

Abundance fitness of substitutions, site by site:
V44: K -0.22 ± 0.11, G -0.059 ± 0.096, Q -0.052 ± 0.089, N 0.002 ± 0.082, S 0.008 ± 0.07, P -0.356 ± 0.075, H -0.027 ± 0.078, D -0.064 ± 0.11, I 0.05 ± 0.079, E 0.125 ± 0.13, M -0.136 ± 0.1, R -0.099 ± 0.081, C 0.028 ± 0.1, T -0.094 ± 0.07, W -0.253 ± 0.12, A -0.067 ± 0.077, L 0.042 ± 0.068, Y -0.223 ± 0.093
V42: R -0.2 ± 0.091, L -0.155 ± 0.1, H 0.03 ± 0.16, S -0.077 ± 0.12, F -0.415 ± 0.19, N -0.345 ± 0.27, K -0.236 ± 0.17, T 0.043 ± 0.15, G -0.065 ± 0.086, Q -0.143 ± 0.14, Y -0.18 ± 0.21, I 0.043 ± 0.14, P -0.194 ± 0.16, A -0.093 ± 0.12, C -0.263 ± 0.2, D 0.141 ± 0.15, W -0.039 ± 0.12, E 0.23 ± 0.14
F47: Q -0.829 ± 0.22, C -0.471 ± 0.18, T -0.893 ± 0.29, V -0.264 ± 0.11, K -0.694 ± 0.2, N -0.778 ± 0.41, W -0.452 ± 0.14, L -0.016 ± 0.092, S -0.507 ± 0.12, E -0.967 ± 0.16, I 0.044 ± 0.4, G -0.342 ± 0.09, H -0.6 ± 0.47, Y -0.207 ± 0.28, P -1.06 ± 0.32, D -0.4 ± 0.24, R -0.801 ± 0.12, A -0.406 ± 0.12, M -0.334 ± 0.15
R41: P -0.143 ± 0.13, L -0.059 ± 0.085, V -0.008 ± 0.09, Q 0 ± 0.14, S 0.083 ± 0.1, M -0.081 ± 0.13, Y 0.017 ± 0.17, D 0.204 ± 0.13, A 0.069 ± 0.11, C -0.002 ± 0.14, T 0.06 ± 0.11, N 0.103 ± 0.21, W -0.335 ± 0.13, H -0.196 ± 0.16, K 0.033 ± 0.11, E -0.181 ± 0.14
A50: H -0.394 ± 0.34, K -0.347 ± 0.2, L -0.256 ± 0.12, R -0.155 ± 0.086, T -0.087 ± 0.19, I -0.396 ± 0.41, N -0.033 ± 0.22, P -0.87 ± 0.29, C 0.045 ± 0.14, E -0.116 ± 0.15, V -0.044 ± 0.12, Q -0.113 ± 0.18, D -0.57 ± 0.41, F -0.054 ± 0.28
V45: H -0.298 ± 0.34, L 0.007 ± 0.1, E -0.049 ± 0.19, N -0.402 ± 0.44, S 0.072 ± 0.15, D 0.528 ± 0.19, K -0.26 ± 0.16, P -0.245 ± 0.2, G 0.047 ± 0.1, I -0.175 ± 0.12, A -0.09 ± 0.11, Y -0.149 ± 0.28, Q -0.242 ± 0.19, R -0.335 ± 0.11
N37: V -0.056 ± 0.084, I -0.172 ± 0.2, C -0.358 ± 0.12, M -0.202 ± 0.14, T 0.111 ± 0.11, Y -0.595 ± 0.21, W -0.569 ± 0.11, F -0.308 ± 0.16, A -0.02 ± 0.091, Q -0.137 ± 0.13, H -0.282 ± 0.2, G -0.126 ± 0.078, L -0.156 ± 0.079, P -0.847 ± 0.18, D -0.061 ± 0.13, R -0.12 ± 0.081, S -0.109 ± 0.096, K 0.042 ± 0.11
N49: T 0.073 ± 0.14, H -0.077 ± 0.14, V -0.261 ± 0.11, P -0.862 ± 0.22, K -0.153 ± 0.18, E 0.032 ± 0.15, G -0.011 ± 0.084, Y -0.246 ± 0.19, W -0.352 ± 0.12, I -0.127 ± 0.16, A -0.418 ± 0.12, D 0.108 ± 0.17, M -0.168 ± 0.14, Q -0.355 ± 0.19, C -0.252 ± 0.14, F 0.005 ± 0.27, L -0.17 ± 0.1
T40: N -0.546 ± 0.45, I 0.591 ± 0.32, P -0.254 ± 0.28, S -0.213 ± 0.44
W46: S -0.403 ± 0.17, V -0.803 ± 0.18, A -0.669 ± 0.19, G -0.559 ± 0.16, T -0.972 ± 0.48, C -0.366 ± 0.21, L -0.691 ± 0.17, M -0.864 ± 0.3, E -0.396 ± 0.27, P -0.656 ± 0.36, R -0.344 ± 0.11
L38: D -0.709 ± 0.12, M -0.067 ± 0.1, Y -0.431 ± 0.083, V -0.051 ± 0.085, A -0.019 ± 0.082, N -0.914 ± 0.099, T -0.007 ± 0.075, S -0.275 ± 0.074, K -0.357 ± 0.13, Q -0.131 ± 0.11, C 0.018 ± 0.093, E -0.366 ± 0.14, I -0.061 ± 0.087, G -1.04 ± 0.13, P -0.913 ± 0.12, H -0.305 ± 0.086, R -0.416 ± 0.086, F -0.277 ± 0.087, W -0.735 ± 0.14
I43: D -0.881 ± 0.29, A -0.259 ± 0.12, P -0.869 ± 0.29, E -0.69 ± 0.16, T 0.032 ± 0.13, K -1.22 ± 0.26, V -0.12 ± 0.11, L -0.059 ± 0.1, R -1 ± 0.13, W -1.07 ± 0.24, H -1.18 ± 0.29, N -1.01 ± 0.31, C -0.193 ± 0.37, F -0.412 ± 0.23, S -0.766 ± 0.16, M -0.394 ± 0.16, Q -0.964 ± 0.24, G -1.01 ± 0.15
P39: C -0.063 ± 0.13, K -0.245 ± 0.14, Y -0.701 ± 0.19, W -1.22 ± 0.17, D 0.093 ± 0.12, A -0.153 ± 0.09, S -0.062 ± 0.099, L -0.962 ± 0.15, G 0.014 ± 0.077, Q -0.095 ± 0.15, N -0.127 ± 0.23, T -0.041 ± 0.11, H 0.154 ± 0.15, V -0.766 ± 0.1, R -0.097 ± 0.077, F -1.1 ± 0.25, M -0.69 ± 0.17, E -0.037 ± 0.1
Q48: T -0.082 ± 0.23, E -0.134 ± 0.19, G -0.177 ± 0.1, S -0.161 ± 0.12, R -0.106 ± 0.1, L -0.441 ± 0.2, P -1.11 ± 0.3, W -0.262 ± 0.18, I -0.281 ± 0.29, N -0.132 ± 0.18, A 0.017 ± 0.19, V -0.061 ± 0.17, K -0.434 ± 0.23, C -0.051 ± 0.23, M -0.278 ± 0.19, D -0.021 ± 0.15, H -0.418 ± 0.26
R51: F -0.221 ± 0.23, H -0.462 ± 0.25, K 0.035 ± 0.26, Y -0.175 ± 0.31, N -0.488 ± 0.34, I -0.235 ± 0.2, T -0.608 ± 0.24, W -0.194 ± 0.13, D -0.304 ± 0.26, C -0.128 ± 0.24, A -0.24 ± 0.13, G -0.317 ± 0.1, V -0.043 ± 0.13, Q -0.251 ± 0.24, E -0.144 ± 0.27, P -0.898 ± 0.24, M -0.219 ± 0.23
A54: I -0.096 ± 0.13, N 0.081 ± 0.12, H -0.039 ± 0.094, P -0.073 ± 0.088, Y -0.277 ± 0.15, E -0.013 ± 0.23, Q 0.01 ± 0.17, R -0.179 ± 0.1, C 0.062 ± 0.17, F -0.06 ± 0.12, D -0.068 ± 0.12, G -0.06 ± 0.12, K -0.232 ± 0.23, W -0.211 ± 0.18, T -0.1 ± 0.097, V -0.053 ± 0.1, L -0.079 ± 0.093, M -0.013 ± 0.2
Q52: A -0.418 ± 0.24, T 0.011 ± 0.14, R -0.401 ± 0.19, S -0.275 ± 0.16, N -0.166 ± 0.2, E 0.068 ± 0.32, V 0.026 ± 0.19, H -0.015 ± 0.23, Y -0.256 ± 0.28, P -0.049 ± 0.15, L -0.121 ± 0.11, M -0.308 ± 0.39
R55: Y 0.176 ± 0.39, V -0.161 ± 0.12, G -0.048 ± 0.092, H 0.187 ± 0.18, L 0.223 ± 0.13, F -0.369 ± 0.27, S -0.069 ± 0.14, E -0.129 ± 0.19, Q -0.1 ± 0.34, W -0.286 ± 0.14, I 0.307 ± 0.23, D -0.041 ± 0.21, M 0.154 ± 0.3, T 0.004 ± 0.19, A -0.111 ± 0.13, P -0.113 ± 0.15, C -0.104 ± 0.22
V35: P -0.297 ± 0.12, M 0.058 ± 0.15, S 0.03 ± 0.091, T 0.108 ± 0.11, Y -0.506 ± 0.22, L -0.004 ± 0.094, N -0.427 ± 0.26, K 0.157 ± 0.12, W -0.202 ± 0.11, Q 0.004 ± 0.12, R 0.06 ± 0.081
K53: Q -0.155 ± 0.11, W -0.178 ± 0.1, R -0.137 ± 0.079, G 0.023 ± 0.073, Y -0.223 ± 0.19, P -0.054 ± 0.12, A 0.145 ± 0.099, L 0.144 ± 0.085, F 0.036 ± 0.15, I -0.124 ± 0.16, M 0.119 ± 0.15, S -0.06 ± 0.095, C 0.11 ± 0.13, T 0.028 ± 0.12, H 0.126 ± 0.17, D 0.109 ± 0.16, E 0.262 ± 0.11
L36: N -0.801 ± 0.1, C 0.008 ± 0.095, F -0.407 ± 0.086, H -0.701 ± 0.11, K -0.794 ± 0.15, W -0.842 ± 0.13, Y -0.8 ± 0.1, Q -0.877 ± 0.16, R -0.811 ± 0.088, A -0.098 ± 0.086, E -1.19 ± 0.28, D -0.933 ± 0.14, V 0.03 ± 0.074, T 0.045 ± 0.081, G -0.318 ± 0.087, M -0.157 ± 0.13
K56: G -0.038 ± 0.19, D -0.06 ± 0.23, C -0.27 ± 0.27, H -0.012 ± 0.23, E -0.547 ± 0.29

— the Human Domainome abundance scans (Beltran et al. 2025)
